# From the RNAGym collection of RNA variant scans (doi:10.1073/pnas.2313332121)
# Fewer inactive variants are shown than the library holds.
# B1: TPR 5TU (parent)
# chain: GGAUCUUCUCGAUCUAACAAAAAAGACAAAUCUGCCACAAAGCUUGAGAGCAUCUUCGGAUGCAGAGGCGGCAGCCUUCGGUGGCGCGAUAGCGCCAACGUUCUCAACUAUGACACGCAAAACGCGUGCUCCGUUGAAUGGAGUUUAUCAUG
# Variants of: B1
# Assay: polymerase ribozyme fitness, log enrichment relative to wild type (log ratio); higher = more active; in vitro selection for triplet polymerase activity
# Procedure, shortened: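 Libraries of mutants in each subunit of a heterodimeric triplet polymerase ribozyme were generated by PCR and transcribed. In triplicate, each went through one in vitro selection round: annealing with biotinylated primer, partner subunit and triplets; frozen incubation at −7 °C; gel excision of extended constructs; streptavidin-bead capture; RT-PCR. Fitness, taken from Illumina sequencing of input and output libraries, is the logarithm of a genotype's enrichment over wild-type enrichment, averaged across replicates with inverse-variance weights. The logarithm is base 2, and genotypes needed ≥10 input reads and ≥1 read per output to be kept.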
row,Variant,polymerase ribozyme fitness (log ratio)
1,C8A G25U U31A U82C C118G U145C,≤ -4.2
2,C8A A21C,-3.76
3,C8U C38U G48A A60C C72G C96A C99U C114G U139G U148G,≤ -4.2
4,U7G A26C U31G U55A G86C G126U,≤ -4.2
5,C8A A47G A49C G59C A60U G84A C125G,≤ -4.2
6,U7G A19C A30U G71C G84A C96G C118G,≤ -4.2
7,C8U A12G A28U G74A G81A C99U,-4.18
8,C8A U144C,-4.16
9,C8U A20G U33A U56A C95A C131A,≤ -4.2
10,C8G C27G C36G A39C C85A,≤ -4.2
11,C8G C14A A39C G74U G143U,≤ -4.2
12,C8A U56A A66C G94A A98U,≤ -4.2
13,C8U A20U G46C G59U A60C C63U G83U C87U A97U U145A,≤ -4.2
14,C8G C116G,-3.15
15,C8U C27U A115G,-4.06
16,C8U C18G C35A U53A G58C,≤ -4.2
17,C8U C54U U56C C85A G92C,≤ -4.2
18,C8U A66C C93U G124A,≤ -4.2
19,C8G C43U G88C C93A U146G,≤ -4.2
20,C8G U55G C72U G84U G136A,≤ -4.2
21,C8A C18U A20G U45A G59C G62A C76U C114G,≤ -4.2
22,C8U A29G A52G U56A U127G,≤ -4.2
23,U7G A21C C35A A47C C99A C123A,≤ -4.2
24,C8U U56A,-3.09

row,Variant,polymerase ribozyme fitness (log ratio)
1,C8A G11A C63U G83C U130G G152C,≤ -4.2
2,C8G C54G C85U A121U C131A G136U A137G,≤ -4.2
3,C8A A17U A23U A26G C27G U90G G92A A115C,≤ -4.2
4,C8A A26G G59U A89G C93G C95U C108U C132A,≤ -4.2
5,C8U A21C G25U A97U,≤ -4.2
6,U7G A64G C87A C105A U144G,≤ -4.2
7,U7G A21G C57G U127G U130G C131U U135G U148A,≤ -4.2
8,C8U C27A A29U A66U G67A A120U U134A,≤ -4.2
9,U7G G48C G84A,-3.94
10,C8A G88A,≤ -4.2
11,C8A A12U U61A C79U G84U C85G C118U A119G C129A G143C U148G,≤ -4.2
12,C8G U15G A21G G83U A91G C105U U144C U148A,≤ -4.2
13,C8A A16U A17U A26U G80C C87U U139G U151A,≤ -4.2
14,C8U U53A,-3.41
15,C8G U44A A52C C75A A91G U148G,≤ -4.2
16,C8A A49G C76A C93A C103G C105A U127C,≤ -4.2
17,C8A A49G G74A G86U G141U U148G,≤ -4.2
18,C8G U82A C85A A91U C96U G117C,≤ -4.2
19,C8G C85U G88U U145C,≤ -4.2
20,C8U G92U,-3.35
21,C8G C10U C51A G80C C95A U102G G124U A137C,≤ -4.2
22,C8A A12G,-3.98
23,U7G C18U A19U A28U C85A C87U A97U,≤ -4.2
24,C8G G143C,-4.08

row,Variant,polymerase ribozyme fitness (log ratio)
1,C8U G59C,-2.99
2,C8A G58C,-4.1
3,C8U A19U G62A G86C A113C,≤ -4.2
4,U7G G50C G58U C63U C76A G92A C149G,≤ -4.2
5,C8U A30U U44A A97G U101G A113G C132U C149G A150U,≤ -4.2
6,C8G C125A,-3.82
7,C8U C79G G84A G94C G136C A138G A150G,≤ -4.2
8,C8G C14G C18G C96U A137U,≤ -4.2
9,C8U A24C C36U G48A C95G C105U U145A,≤ -4.2
10,C8A A41G,-4.12
11,C8U G83C C125U,≤ -4.2
12,C8G A12G G42C U82A C95U C108U G136A G143A A150U,≤ -4.2
13,C8A A73U G83A C93U A138C U145C,≤ -4.2
14,C8A A17G U55A C93A G126U G140A,≤ -4.2
15,U7G U13A A17U A20C G50A A122C G141U U151G,≤ -4.2
16,C8G A16U A20U C79U C85U A115C,≤ -4.2
17,C8U C38G G92U C95U C99U U104A U145G,≤ -4.2
18,C8G A28U C87U C105U,≤ -4.2
19,U7G G11C A29C U82G C95U U109G,≤ -4.2
20,C8G C125U G141C,≤ -4.2
21,U7C G92C,-2.73
22,C8A C43U G46A A73G C85U U134G U151A,≤ -4.2
23,C8A C10G C18U A21U C54A C87U A120G,≤ -4.2
24,C8G C35U C85G G88U U134A,≤ -4.2

row,Variant,polymerase ribozyme fitness (log ratio)
1,C8U U9G C18G U33G U55A C95U C105U G112U C132U A147U,≤ -4.2
2,U7G A12G A52U C57A A73G C93G,≤ -4.2
3,C8G U53C G58C C79U A89G U139C,≤ -4.2
4,U7G A40U A66C G81C A120G U146G,≤ -4.2
5,U7G A23G,≤ -4.2
6,C8U G141C,-2.78
7,C8A G11C A29U C95G,≤ -4.2
8,U7G U15A G58U G70C A91G,≤ -4.2
9,U7G A20C A40C G48U A64U A89U G92U U101C C132A,≤ -4.2
10,U7G G11A C18A A37G G50A C85U G112U,≤ -4.2
11,U7G A22G C32U G59C U77G C114U U145A,≤ -4.2
12,C8U A20G,-3.94
13,C8A C93U,-3.42
14,C8A C93A,≤ -4.2
15,C8G C35G C105G U144A,≤ -4.2
16,U7G A30G C32A A39U A60G C96U G126U G140U,-3.86
17,C8U G88U C93U,-4.14
18,C8A C35U C43A G83C G141U,≤ -4.2
19,C8U A41C G46C G71A G83U C116G,≤ -4.2
20,C8A G84A,-3.28
21,C8U A98U U135G U148C,≤ -4.2
22,U7G C69G C93A,≤ -4.2
23,C8A A22C C27U U44C C51U C79A C93G C95G C105G,≤ -4.2
24,C8U C96G,-2.63

row,Variant,polymerase ribozyme fitness (log ratio)
1,C8U C96U,-2.69
2,C8G A20C G67C G68C A113U,≤ -4.2
3,C8U C75A G86U A91U A122G G136A,≤ -4.2
4,C8A C14U A21C U53A G83A A150C,≤ -4.2
5,C8U G83U A97G A142U,-4.17
6,U7C U56A G94A A98G,-3.41
7,U7G A16C,-2.38
8,C8G A47C C54G,≤ -4.2
9,U7G U15A A41U A66C G94U C99G G133U U148G,≤ -4.2
10,C8G A21C G94C C99A,≤ -4.2
11,U7G C85A,-3.43
12,U7G C85U,-2.79
13,C8G A29C G42C,≤ -4.2
14,C8A G48A G92C,≤ -4.2
15,U7G C8G U45G A66U C85U A138U,≤ -4.2
16,C8A C32G A40U A52U A73U A91U,≤ -4.2
17,U7G A60U G83C C85A C105G A137G,≤ -4.2
18,C8G C35U A40U C95U C149A,≤ -4.2
19,C8A A19G G62A G67C C93A A97U G112U A142G U148A,≤ -4.2
20,C8G A30G C35U G65U G94U U135C U144G,≤ -4.2
21,U9A A12C A23G G42C C51A A120C A121U,≤ -4.2
22,C8A A26U A49U G83U U101G C118U A138C,≤ -4.2
23,C8U U82G C87A,≤ -4.2
24,C8G A22C A24U C69U A73U C93U,≤ -4.2

row,Variant,polymerase ribozyme fitness (log ratio)
1,C8U A12G A28C C38U C57G C95U,≤ -4.2
2,C8A A22U C79G G81U C95U A107U C108U,≤ -4.2
3,C8U G84U,-4.13
4,C8A A17G U78G G94A G133A U134A,≤ -4.2
5,C8A U13G A21G A28G G68U G81A C118G G143U,≤ -4.2
6,U7G G11U A16G A24C U31G G34U A98G G117C,≤ -4.2
7,C8A A19G C57G G88A U146G,≤ -4.2
8,U9A,-2.7
9,C8G A12C A23G A52U C57U C93A C95G A110U,≤ -4.2
10,C8U U15A G58U C69A C85A G124C,-3.61
11,C8U U31G,-3.21
12,C8A A30U A40U G48C G84A A113U C132A,≤ -4.2
13,C8U A19C A40G C96U A142U,≤ -4.2
14,C8U G59A C116U,-3.27
15,U7G G50C U56G G94C,≤ -4.2
16,C8A A26U A37C G59A C93U,≤ -4.2
17,C8A C14G U53C G58A G62C C85G,≤ -4.2
18,U9A A16G C54U C75U C76A A120U,≤ -4.2
19,C8G A52C U55C G65A G83U C105U G143U,≤ -4.2
20,U7G U130A,-4.18
21,C8A U31G C36U C114U A142C,-4.19
22,C8A A41C A66U C69A U77C G83C G126U U130G G141C G152C,≤ -4.2
23,C8U A17C A28G C35U C76A C96U U144G,-3.75
24,C8U A24U A30U U90A G92C,≤ -4.2

row,Variant,polymerase ribozyme fitness (log ratio)
1,U7G G83A A91U C131U,-3.4
2,C8U A73U,-3.97
3,C8A C10U C75A G86A A98U A138C,≤ -4.2
4,C8U U44G U55A C79U G88A A110U,≤ -4.2
5,C8U C27G A40G U78G C85G A98C A150G,≤ -4.2
6,C8U U33A A37C G50A A60U C72A G86A U90A A138G U151G,≤ -4.2
7,U7G U82A G117U,-3.65
8,U7C U9G A17U A26G G84A C116A,-3.98
9,C8A G92C,-3.68
10,C8A A12U C35G G92U C103G,-3.99
11,C8U A17G G84U G133C,≤ -4.2
12,C8U A16G A21G A40U,-4.04
13,U7G A40U C43G A91U,≤ -4.2
14,U7G C35A A40G U77C A150U,≤ -4.2
15,U7G G25C A60G C93U C123U,≤ -4.2
16,C8A G58C U82A A98G G136U,≤ -4.2
17,C8U A12G A52G A98U,-2.99
18,C8A C27U U56C U111C A138G,≤ -4.2
19,C8A U55A G84U C85A,≤ -4.2
20,U7G C63A C96G,≤ -4.2
21,C8U C87U,-2.59
22,C8A C14U A37G C54U C85U,≤ -4.2
23,C8A A17G A73U U78G C87U,≤ -4.2
